T1: RssB^(Q254A N256A) (E. coli K12, UniProt P0AEV1 1-337, Q254A | N256A)
T1 sequence (looked up): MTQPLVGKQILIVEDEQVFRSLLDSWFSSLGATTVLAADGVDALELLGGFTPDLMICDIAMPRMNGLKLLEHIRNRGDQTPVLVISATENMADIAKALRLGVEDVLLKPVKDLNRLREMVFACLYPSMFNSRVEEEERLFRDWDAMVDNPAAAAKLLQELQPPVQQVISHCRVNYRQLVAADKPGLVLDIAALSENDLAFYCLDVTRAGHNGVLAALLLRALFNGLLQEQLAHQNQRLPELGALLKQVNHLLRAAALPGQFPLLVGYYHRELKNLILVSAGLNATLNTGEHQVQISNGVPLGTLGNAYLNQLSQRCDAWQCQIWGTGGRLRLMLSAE

T2: RssB^R115A (E. coli K12, UniProt P0AEV1 1-337, R115A)
T2 sequence (looked up): T1 sequence (looked up) with R115A, A254Q, A256N

T3: RssB^AAA (E. coli K12, UniProt P0AEV1 1-337, E134-E137 to EAAA)
T3 sequence (looked up): T1 sequence (looked up) with E135A, E136A, E137A, A254Q, A256N

T4: RssB (wild type) (E. coli K12, UniProt P0AEV1 1-337)
T4 sequence (looked up): T1 sequence (looked up) with A254Q, A256N

B1: His6IraD (wild type) (natural protein, E. coli K12, UniProt P39375 1-130, looked up)
chain: MMRQSLQAVLPEISGNKTSSLRKSVCSDLLTLFNSPHSALPSLLVSGMPEWQVHNPSDKHLQSWYCRQLRSALLFHEPRIAALQVNLKEAYCHTLAISLEIMLYHDDEPLTFDLVWDNGGWRSATLENVS
B2: RssB^CC (natural protein, E. coli K12, UniProt P0AEV1 1-337, looked up)
chain: T1 sequence (looked up) with S29C, E229C, A254Q, A256N
B3: RssB^D104N (natural protein, E. coli K12, UniProt P0AEV1 1-337, looked up)
chain: T1 sequence (looked up) with D104N, A254Q, A256N

Numbering of substitutions follows the chain as printed. Names may count otherwise.

Data set [1] addresses RssB (wild type) (E. coli K12) (UniProt P0AEV1). Description: cross-linking.
In data set [2] the target is T1, RssB^(Q254A N256A). In words: pull-down.
The target in data set [3] is T2, RssB^R115A. Description: pull-down.
The target of data set [4] is T3, RssB^AAA. Description: pull-down.
Data set [5] deals with T4, RssB (wild type). In words: pull-down.
Data set [6] deals with the molecule itself. In words: cross-linking.
The target of data set [7] is B1. Description: pull-down.

What is called stoichiometry N is the number of molecules, sites or subunits per partner or assembly. As for “RssB (wild type) (from UniProt P0AEV1 1-337) (natural protein)”, the stoichiometry N in data set [1] is 2.

As for B1, the binding result in data set [2], in data set [3], in data set [4] and in data set [5] was “binds” throughout.

In the case of B2, the “stoichiometry N” value in data set [6] came out at 2.

On to B3, for which, in data set [7], the “binding relative to wild type” value is 18 ± 3%.

Values taken from article PMC6546054 (Genes & Development, 2019).
